The series deals with T1, epitope-tagged (V5) full-length murine TLT-1 (TREM-like transcript-1) expressed in HEK293T cells.
T1 sequence: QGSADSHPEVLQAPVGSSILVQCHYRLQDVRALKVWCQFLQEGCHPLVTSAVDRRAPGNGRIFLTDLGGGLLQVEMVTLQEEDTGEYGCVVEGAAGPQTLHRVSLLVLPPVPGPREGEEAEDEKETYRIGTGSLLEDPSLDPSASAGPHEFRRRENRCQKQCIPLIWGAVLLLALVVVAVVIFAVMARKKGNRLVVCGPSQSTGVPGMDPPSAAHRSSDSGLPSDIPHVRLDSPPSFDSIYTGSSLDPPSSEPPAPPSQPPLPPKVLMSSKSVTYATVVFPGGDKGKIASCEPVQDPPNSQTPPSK

Turning to Syk, the “tyrosine phosphorylation of TLT-1 (anti-V5 immunoprecipitation, antiphosphotyrosine immunoblot)” value is “TLT-1 is phosphorylated by Src but not Syk”.

Source of the values: patent US20040180409.
